# Results reported in patent publication US11504441B2, “Radiolabeled compounds targeting the prostate-specific membrane antigen” (PROVINCIAL HEALTH SERVICES AUTHORITY, priority 2019, dated 2022).
# Tests used:
# [1] = test system: PSMA-expressing LNCaP cancer xenografts; settings: mouse, in vivo
# Experimental: (§1) LNCaP cell line was obtained from ATCC (LNCaP clone FGC, CRL-1740). […] Cells were cultured in PRM I 1640 medium supplemented with 10% FBS, penicillin (100 U/mL) and streptomycin (100 μg/mL) at 37° C. in a humidified incubator containing 5% CO2. Cells grown to 80-90% confluence were then washed with sterile phosphate-buffered saline (1× PBS pH 7.4) and collected by trypsinization. The collected cells concentration was counted with a Hausser Scientific (Horsham, Pa.) Hemacytometer.
# (§2) Imaging and biodistribution experiments were performed using NODSCID 1 L2RγKO male mice. Mice were anesthetized by inhalation with 2% isoflurane in oxygen, and implanted subcutaneously with 1×10^7 LNCaP cells behind left shoulder. Mice were imaged or used in biodistribution studies when the tumor grew up to reach 5-8 mm in diameter during 5-6 weeks.
# (§3) PET imaging experiments were conducted using Siemens Inveon micro PET/CT scanner. Each tumor bearing mouse was injected 6-8 MBq of Ga-68 labeled tracer through the tail vein under anesthesia (2% isoflurane in oxygen). The mice were allowed to recover and roam freely in their cage. After 50 min, the mice were sedated again with 2% isoflurane in oxygen inhalation and positioned in the scanner. A 10-min CT scan was conducted first for localization and attenuation correction after segmentation for reconstructing the PET images. Then, a 10-min static PET imaging was performed to determined uptake in tumor and other organs. The mice were kept warm by a heating pad during acquisition. For biodistribution studies, the mice were injected with the radiotracer as described above. The mice was anesthetized with 2% isoflurane inhalation, and euthanized by CO2 inhalation. Blood was withdrawn immediately from the heart, and the organs/tissues of interest were collected. The collected organs/tissues were weighed and counted using a Perkin Elmer (Waltham, Mass.) Wizard2 2480 gamma counter. The uptake in each organ/tissue was normalized to the injected dose using a standard curve, and expressed as the percentage of the injected dose per gram of tissue (% ID/g).
# (§4) LNCaP cell line was obtained from ATCC (LNCaP clone FGC, CRL-1740). […] Cells were cultured in PRM I 1640 medium supplemented with 10% FBS, penicillin (100 U/mL) and streptomycin (100 μg/mL) at 37° C. in a humidified incubator containing 5% CO2. Cells grown to 80-90% confluence were then washed with sterile phosphate-buffered saline (1× PBS pH 7.4), and collected by trypsinization. The collected cell concentration was counted with a Hausser Scientific (Horsham, Pa.) Hemacytometer.
# (§5) Imaging and biodistribution experiments were performed using NODSCID 1L2RγKO male mice. Mice were anesthetized by inhalation with 2% isoflurane in oxygen, and implanted subcutaneously with 1×10^7 LNCaP cells behind left shoulder. Mice were imaged or used in biodistribution studies when the tumor grew up to reach 5-8 mm in diameter during 5-6 weeks.
# (§6) PET imaging experiments were conducted using Siemens Inveon micro PET/CT scanner. Each tumor bearing mouse was injected 6-8 MBq of Ga-68 or F-18 labeled tracer through the tail vein under anesthesia (2% isoflurane in oxygen). The mice were allowed to recover and roam freely in their cage. After 50 min, the mice were sedated again with 2% isoflurane in oxygen inhalation and positioned in the scanner. A 10-min CT scan was conducted first for localization and attenuation correction after segmentation for reconstructing the PET images. Then, a 10-min static PET imaging was performed to determined uptake in tumor and other organs.
# (§7) For biodistribution studies, the mice were injected with the radiotracer as described above.
# in vivo = settings: male, NODSCID 1L2RγKO, mouse, iv, total radioactivity; for excreta dose per gram or mL at 1 h: Urine uptake
# Experimental: as §1, §2, §3, §4, §5, §6, §7
Compound,Blood: Salivary ratio [1],Tumor: Blood ratio [1],Tumor: Kidney ratio [1],Tumor: Muscle ratio [1],Tumor: Salivary ratio [1],tissue uptake at 1 h (in vivo; Adrenal glands uptake),tissue uptake at 1 h (in vivo; Blood uptake),tissue uptake at 1 h (in vivo; Bone uptake),tissue uptake at 1 h (in vivo; Brain uptake),tissue uptake at 1 h (in vivo; Fat uptake),tissue uptake at 1 h (in vivo; Heart uptake),tissue uptake at 1 h (in vivo; Intestine uptake),tissue uptake at 1 h (in vivo; Kidneys uptake),tissue uptake at 1 h (in vivo; Lacrimal uptake),tissue uptake at 1 h (in vivo; Liver uptake),tissue uptake at 1 h (in vivo; Lungs uptake),tissue uptake at 1 h (in vivo; Muscle uptake),tissue uptake at 1 h (in vivo; Pancreas uptake),tissue uptake at 1 h (in vivo; Salivary uptake),tissue uptake at 1 h (in vivo; Seminal uptake),also measured
"O=C(O)CCC[C@H](NC(=O)N[C@@H](CCCCNC(=O)[C@H](Cc1c2ccccc2cc2ccccc12)NC(=O)Cc1cccc(CNC(=O)CN2CCN(CC(=O)O)CCN(CC(=O)O)CCN(CC(=O)O)CC2)c1)C(=O)O)C(=O)O [68Ga-HTK04037, metal not drawn]",3.55 ± 0.46,26.3 ± 10.5,3.02 ± 1.22,165 ± 52.9,92.2 ± 34.5,0.19 ± 0.03 %ID/g,0.51 ± 0.12 %ID/g,0.07 ± 0.01 %ID/g,0.02 %ID/g,0.06 ± 0.01 %ID/g,0.15 ± 0.03 %ID/g,0.28 ± 0.03 %ID/g,4.47 ± 0.9 %ID/g,0.07 ± 0.04 %ID/g,0.2 ± 0.03 %ID/g,0.46 ± 0.09 %ID/g,0.08 ± 0.03 %ID/g,0.11 ± 0.01 %ID/g,0.14 ± 0.03 %ID/g,8.45 ± 10 %ID/g,tissue uptake at 1 h (in vivo; Spleen uptake): 0.24 ± 0.05 %ID/g; tissue uptake at 1 h (in vivo; Stomach uptake): 0.12 ± 0.05 %ID/g; tissue uptake at 1 h (in vivo; Tail uptake): 0.41 ± 0.16 %ID/g; tissue uptake at 1 h (in vivo; Testes uptake): 0.18 ± 0.04 %ID/g; tissue uptake at 1 h (in vivo; Thyroid uptake): 0.16 ± 0.03 %ID/g; tissue uptake at 1 h (in vivo; Tumor uptake): 13.1 ± 4.69 %ID/g; excreta dose per gram or mL at 1 h (in vivo): 396 ± 114 %ID/g
"O=C(O)CN1CCN(CC(=O)O)CCN(CC(=O)NC[C@H]2CC[C@H](C(=O)N[C@@H](Cc3c4ccccc4cc4ccccc34)C(=O)NCCCC[C@H](NC(=O)N[C@@H](C[C@H](F)C(=O)O)C(=O)O)C(=O)O)CC2)CCN(CC(=O)O)CC1 [68Ga-HTK04040, metal not drawn]",0.73 ± 0.06,20.4 ± 6.02,0.26 ± 0.08,43.2 ± 24.9,14.9 ± 4.40,2.68 ± 0.7 %ID/g,0.94 ± 0.12 %ID/g,0.18 ± 0.03 %ID/g,0.25 ± 0.43 %ID/g,0.6 ± 0.3 %ID/g,0.88 ± 0.08 %ID/g,0.53 ± 0.04 %ID/g,76 ± 22.6 %ID/g,0.06 ± 0.02 %ID/g,0.94 ± 0.11 %ID/g,2.01 ± 0.21 %ID/g,0.64 ± 0.5 %ID/g,0.61 ± 0.08 %ID/g,1.29 ± 0.24 %ID/g,0.51 ± 0.12 %ID/g,tissue uptake at 1 h (in vivo; Spleen uptake): 2.58 ± 0.8 %ID/g; tissue uptake at 1 h (in vivo; Stomach uptake): 0.23 ± 0.08 %ID/g; tissue uptake at 1 h (in vivo; Tail uptake): 0.85 ± 0.54 %ID/g; tissue uptake at 1 h (in vivo; Testes uptake): 0.74 ± 0.04 %ID/g; tissue uptake at 1 h (in vivo; Thyroid uptake): 1.14 ± 0.14 %ID/g; tissue uptake at 1 h (in vivo; Tumor uptake): 18.8 ± 5.06 %ID/g; excreta dose per gram or mL at 1 h (in vivo): 325 ± 66.8 %ID/g
"O=C(O)CCCCC(NC(=O)N[C@@H](CCCCNC(=O)[C@H](Cc1c2ccccc2cc2ccccc12)NC(=O)[C@H]1CC[C@H](CNC(=O)CN2CCN(CC(=O)O)CCN(CC(=O)O)CCN(CC(=O)O)CC2)CC1)C(=O)O)C(=O)O (single isomer, unassigned) [68Ga-HTK03189A, metal not drawn]",4.39 ± 0.44,2.41 ± 0.29,0.83 ± 0.21,16.5 ± 4.08,10.5 ± 1.07,0.35 ± 0.06 %ID/g,0.89 ± 0.22 %ID/g,0.12 ± 0.03 %ID/g,0.02 %ID/g,0.18 ± 0.11 %ID/g,0.24 ± 0.06 %ID/g,0.31 ± 0.18 %ID/g,2.65 ± 0.69 %ID/g,0.18 ± 0.18 %ID/g,0.34 ± 0.15 %ID/g,0.68 ± 0.12 %ID/g,0.14 ± 0.04 %ID/g,0.15 ± 0.04 %ID/g,0.2 ± 0.04 %ID/g,3.61 ± 4.59 %ID/g,"Tumor uptake ([1]; male, NODSCID 1L2RγKO, iv, 1 h): 2.10 ± 0.28 % ID/g; tissue uptake at 1 h (in vivo; Spleen uptake): 0.21 ± 0.1 %ID/g; tissue uptake at 1 h (in vivo; Stomach uptake): 0.11 ± 0.06 %ID/g; tissue uptake at 1 h (in vivo; Tail uptake): 0.77 ± 0.3 %ID/g; tissue uptake at 1 h (in vivo; Testes uptake): 0.23 ± 0.11 %ID/g; tissue uptake at 1 h (in vivo; Thyroid uptake): 0.25 ± 0.05 %ID/g; excreta dose per gram or mL at 1 h (in vivo): 343 ± 54.4 %ID/g"
"O=C(O)CCC[C@H](NC(=O)N[C@@H](CCCCNC(=O)[C@H](Cc1c2ccccc2cc2ccccc12)NC(=O)c1ccc(NC(=O)CN2CCN(CC(=O)O)CCN(CC(=O)O)CCN(CC(=O)O)CC2)cc1)C(=O)O)C(=O)O [68Ga-HTK04041, metal not drawn]",3.96 ± 0.51,12.4 ± 3.62,2.06 ± 0.89,95.1 ± 33.7,48.2 ± 12.2,0.31 ± 0.05 %ID/g,1 ± 0.09 %ID/g,0.13 ± 0.02 %ID/g,0.02 %ID/g,0.11 ± 0.03 %ID/g,0.3 ± 0.03 %ID/g,0.19 ± 0.04 %ID/g,6.82 ± 2.93 %ID/g,0.11 ± 0.05 %ID/g,0.37 ± 0.08 %ID/g,0.82 ± 0.08 %ID/g,0.13 ± 0.03 %ID/g,0.15 ± 0.02 %ID/g,0.26 ± 0.04 %ID/g,1.68 ± 3.44 %ID/g,tissue uptake at 1 h (in vivo; Spleen uptake): 0.4 ± 0.11 %ID/g; tissue uptake at 1 h (in vivo; Stomach uptake): 0.07 ± 0.03 %ID/g; tissue uptake at 1 h (in vivo; Tail uptake): 0.57 ± 0.05 %ID/g; tissue uptake at 1 h (in vivo; Testes uptake): 0.31 ± 0.05 %ID/g; tissue uptake at 1 h (in vivo; Thyroid uptake): 0.29 ± 0.04 %ID/g; tissue uptake at 1 h (in vivo; Tumor uptake): 12.2 ± 3.15 %ID/g; excreta dose per gram or mL at 1 h (in vivo): 396 ± 92.3 %ID/g
